The data set relates to MS2 coat protein. In words: apparent KD of MS2 coat protein; designed switch direction (-1 OFF switch, 1 ON switch): -1; higher = weaker reporter binding. In short, it runs like this: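 Three titration conditions were used: no input, 200 uM small-molecule ligand, and an oligonucleotide input. In each, SNAP-549-labelled MS2 coat protein was raised from 0.7 or 1.5 nM, doubling, to 3 µM over designed RNA switches transcribed on Illumina chips by stalled E. coli RNA polymerase. Curve fits of normalised cluster fluorescence gave values whose per-design median over clusters is the apparent KD.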

Where [1] appears, read: input ligand: microRNA oligo, concentration not stated.
The mark [2] stands for this setting: Eterna round: R95, input ligand: FMN 200 uM.
[3] abbreviates: Eterna round: R95, input ligand: microRNA oligo, concentration not stated.
Where [4] appears, read: Eterna round: R95, input ligand: none.

For “AACCUGAGGCAAAGCUUUAGGUGUACAUGAGGAUCACCCAUGUAGGAUAUGGUAAGCAAAGCUUACCAGAAGGACAUAAUGAUA [Mat - Exclusion NG 3 - Mod of JL - D49] (Eterna round: R96, puzzle: Exclusion NG 3)”, the “apparent KD of MS2 coat protein” value (input ligand: FMN 200 uM) is 86.5 nM, the “apparent KD of MS2 coat protein” value under setting [1] came out at 37.6 nM and the “apparent KD of MS2 coat protein” value (input ligand: none) amounted to 59.4 nM.
As to “AACCUGAGGCUUUGCUUUAGGUGUACAUGAGGAUCACCCAUGUAGGAUAUGGUAGGCUUUGCUUACCAGAAGGACAUUAUGAUG [JL ENG3 1.17] (Eterna round: R96, puzzle: Exclusion NG 3)”, the “apparent KD of MS2 coat protein” value reads like this: (input ligand: FMN 200 uM) 75.1 nM; under setting [1], 44.3 nM; (input ligand: none) 52.8 nM.
For the sequence “AACUAAACAUGAGGAUAUGCCUGGGAAGAACAGGCAGAAGGCGUGACAUGAGGAUCACCCAUGUAGCCGGGCUAUUCUCAUGCG [Cediceor] (Eterna round: R96, puzzle: Exclusion NG 1)”, the “apparent KD of MS2 coat protein” value (input ligand: FMN 200 uM) was 25.3 nM, the “apparent KD of MS2 coat protein” value under setting [1] was found to be 26.1 nM and the “apparent KD of MS2 coat protein” value (input ligand: none) came to 31.3 nM.
Regarding “AACUCACGUUCAGGAUAUCGCGUUCCAAAGACAUGAGAAGGGAACAUGAGGAUCACCCAUGUGCCCGGUCUCAGACCGGGCUUC [Cetein] (Eterna round: R96, puzzle: Exclusion NG 1)”, the “apparent KD of MS2 coat protein” value (input ligand: FMN 200 uM) amounted to 328 nM, the “apparent KD of MS2 coat protein” value under setting [1] was found to be 76 nM and the “apparent KD of MS2 coat protein” value (input ligand: none) amounted to 88.8 nM.
“AACUCUGAGAAGGAUAUGGUACGGGAAAUGGUACCAGAAGGUUUCACAUGAGGAUCACCCAUGUCGAAUAGUGA [EX6 #68] (Eterna round: R97, puzzle: Exclusion 6)”: the “apparent KD of MS2 coat protein” value (input ligand: FMN 200 uM) was found to be 28.8 nM and the “apparent KD of MS2 coat protein” value (input ligand: none) amounted to 27.4 nM.
“AACUCUGAGAAGGAUAUUGUACGGGAAAUGGUACAAGAAGGUUUCACAUGAGGAUCACCCAUGUCGAAUAGUGA [EX6 #69] (Eterna round: R97, puzzle: Exclusion 6)”: the “apparent KD of MS2 coat protein” value (input ligand: FMN 200 uM) turned out to be 34.7 nM and the “apparent KD of MS2 coat protein” value (input ligand: none) came out at 22.9 nM.
Regarding “AAGAAACAUGAGGAUCACCCAUGUCAGGAUAUCCGAAAAGAAAAGAAAAGAAAAGAAAGGAGAAGGGACAAAAG [Default title] (puzzle: Exclusion 1)”, the “apparent KD of MS2 coat protein” value reads like this: under setting [2], 40.7 nM; under setting [3], 26.6 nM; under setting [4], 76 nM.
For “AAGAAACAUGAGGAUCACCCAUGUCAGGAUAUCUCGAAAAGCAUAGAAAUAUGCGAAGAGAGAAGGGACAAGAA [ChP Ext 10-04-2015] (puzzle: Exclusion 1)”, the “apparent KD of MS2 coat protein” value under setting [3] is 56.1 nM.
“AAGAAACAUGAGGAUCACCCAUGUGAGGAUAUGACCAAGAAAAGAAAAGAAAGAAGAAUCAGAAGGCACAAAGG [salish99-ex1_r3_051] (puzzle: Exclusion 1)”: the “apparent KD of MS2 coat protein” value by setting is: under setting [2], 47.7 nM; under setting [3], 47.2 nM; under setting [4], 70.2 nM.
For the sequence “AAGAAACAUGAGGAUCACCCAUGUGAGGAUAUGACGAAGAAAAGAAAAGAAAGAAGAAUCAGAAGGCACAAAGG [salish99-ex1_r3_052] (puzzle: Exclusion 1)”, the “apparent KD of MS2 coat protein” value is, setting by setting: under setting [2], 64.1 nM; under setting [3], 40.8 nM; under setting [4], 51.6 nM.
The matching figures for “AAGAAACAUGAGGAUCACCCAUGUGAGGAUAUGACGAAGAAAAGAAAAGAAAGAAGAGUCAGAAGGCACAAAGG [salish99-ex1_r3_067] (puzzle: Exclusion 1)”: 132 nM, 100 nM and 109 nM.
Turning to “AAGAAACAUGAGGAUCACCCAUGUGAGGAUAUGAUGAAGAAAAGAAAAGAAAGAAGACUCAGAAGGCACAAAGG [salish99-ex1_r3_070] (puzzle: Exclusion 1)”, the “apparent KD of MS2 coat protein” value reads like this: under setting [2], 77.1 nM; under setting [3], 45.3 nM; under setting [4], 47.4 nM.
As to “AAGAAACAUGAGGAUCACCCAUGUGAGGAUAUGAUUAAGAAAAGAAAAGAAAGAAGACUCAGAAGGCACAAAGG [salish99-ex1_r3_069] (puzzle: Exclusion 1)”, the “apparent KD of MS2 coat protein” value reads like this: under setting [2], 55.5 nM; under setting [3], 80.9 nM; under setting [4], 45.5 nM.
Take “AAGAAACAUGAGGAUCACCCAUGUGAGGAUAUGUAAAAUAAAAUAAAAGAAAUAAUAAACAGAAGGCACAAAGG [Mat - Mod of Hog D16] (puzzle: Exclusion 1)”: the “apparent KD of MS2 coat protein” value is, setting by setting: under setting [2], 47.2 nM; under setting [3], 29.8 nM; under setting [4], 41.8 nM.
Consider “AAGAAACGAGGAUAUACAGUUGAGUGAGAGAGGGAAGUGUGACAUGAGGAUCACCCAUGUAGAAGGCGUGAGAG [JR_Exclu2_Sub087] (puzzle: Exclusion 2)”, for which the “apparent KD of MS2 coat protein” value reads like this: under setting [2], 49.1 nM; under setting [3], 40.4 nM; under setting [4], 76.8 nM.
Turning to “AAGAAACGAGGAUAUACAGUUGAGUGAGAGAGGGAAGUGUUACAUGAGGAUCACCCAUGUAGAAGGCGUGAGAG [JR_Exclu2_Sub088] (puzzle: Exclusion 2)”, the “apparent KD of MS2 coat protein” value reads like this: under setting [2], 32.9 nM; under setting [3], 31.4 nM; under setting [4], 33.6 nM.
Regarding “AAGAAGAGGUGAGGAUAUCGAAGUACAGGCUGGGACUCGGACUACAUGAGGAUCACCCAUGUAUACGAGAAGGCACUUCGAUAA [Quusatrare] (Eterna round: R96, puzzle: Exclusion NG 2)”, the “apparent KD of MS2 coat protein” value is, setting by setting: (input ligand: FMN 200 uM) 12.6 nM; under setting [1], 12 nM; (input ligand: none) 14.7 nM.
For “AAGAAGCUAGGAUAUACAUGAGGAUCACCCAUGUCUCCAUGGUUGACGAGUUCCGCACGUAGAAGGAGCAAAAC [Aerdidima] (Eterna round: R97, puzzle: Exclusion 3)”, the “apparent KD of MS2 coat protein” value (input ligand: FMN 200 uM) amounted to 225 nM and the “apparent KD of MS2 coat protein” value (input ligand: none) came to 56.7 nM.
With “AAGACCUUUGUCAGGAUAUCAAGGCAAUUCGCCGGUGAGAAGGGACAUGAGGAUCACCCAUGUAAAGAAAAGAA [Rausedlave] (puzzle: Brourd's mod of Exclusion 4)”, the “apparent KD of MS2 coat protein” value runs as follows: under setting [2], 69 nM; under setting [3], 20.1 nM; under setting [4], 19.7 nM.
As for “AAGAGAGCAGGAUAUCGGUUUUGCGACAUGAGGAUCACCCAUGUGAGCCGAGUCCAACGCCGAGAAGGGCUAAAAU [Onesis] (puzzle: Exclusion 5)”, the “apparent KD of MS2 coat protein” value under setting [3] worked out at 53.3 nM.
“AAGAGGAUUACAGGAUAUGAAGCUAAAACGGCGUUAGAAGGGUAUACAGAGUUACAUGAGGAUCACCCAUGUUGUGAUUUCUAA [AK ExNG1-V2-4.2] (Eterna round: R96, puzzle: Exclusion NG 1)”: the “apparent KD of MS2 coat protein” value (input ligand: FMN 200 uM) came to 48.4 nM, the “apparent KD of MS2 coat protein” value under setting [1] was determined as 38.4 nM and the “apparent KD of MS2 coat protein” value (input ligand: none) was 49.2 nM.
For “AAGAGGUCAGGAUAUACGGGAAGAGGGAGAAGUAGAGGGUAACAUGAGGAUCACCCAUGUAGAAGGGACUAAGA [JR_Exclu2_Sub073] (puzzle: Exclusion 2)”, the “apparent KD of MS2 coat protein” value under setting [2] was determined as 26.7 nM, the “apparent KD of MS2 coat protein” value under setting [3] was 26.4 nM and the “apparent KD of MS2 coat protein” value under setting [4] is 28.1 nM.
Regarding “AAGAGUAGAGGAUAUUGUUUAUGGCACAUGAGGAUCACCCAUGUAGCGAGAGUGGUGCCACAAGAAGGUUGCAUGA [Eternabot (L2) Solution 71] (Eterna round: R97, puzzle: Exclusion 5)”, the “apparent KD of MS2 coat protein” value reads like this: (input ligand: FMN 200 uM) 42.3 nM; (input ligand: none) 52.5 nM.
Turning to “AAGAGUGCAGGAUAUACGUGAUGGAGUAGGAUGAGAGAAGGACAUGAGGAUCACCCAUGUAGAAGGGCAGAGAG [JR_Exclu2_Sub059] (puzzle: Exclusion 2)”, the “apparent KD of MS2 coat protein” value by setting is: under setting [2], 28.7 nM; under setting [3], 43.4 nM; under setting [4], 31 nM.
Take “AAGCAGCGAGGAUAUGCUUGAGCGUGUCCUAGUUGAAAUAAACUUGAGGAUCACCCAAGUAGAAGGCGCAGCCC [Rivezaed] (Eterna round: R97, puzzle: Exclusion 2)”: the “apparent KD of MS2 coat protein” value reads like this: (input ligand: FMN 200 uM) 135 nM; (input ligand: none) 49.1 nM.
Regarding “AAGCAGGUGUAGGCCGUCUACAUGAGGAUCACCCAUGUGCCUCAUCCACCCGGCACCCAAUAAAGCGGGCGCCGGGC [Teququ] (Eterna round: R96, puzzle: Sensor v2, turn-off variant)”, the “apparent KD of MS2 coat protein” value (input ligand: FMN 200 uM) was 113 nM, the “apparent KD of MS2 coat protein” value under setting [1] worked out at 65.3 nM and the “apparent KD of MS2 coat protein” value (input ligand: none) was found to be 103 nM.
Regarding “AAGCCACAUGAGGAUCACCCAUGUUAGGAUAUACGCAUGCAGACACGCACGGAUGCAAGUAGAAGGAACCAUGC [Design #5] (Eterna round: R97, puzzle: Exclusion 1)”, the “apparent KD of MS2 coat protein” value is, setting by setting: (input ligand: FMN 200 uM) 16.8 nM; (input ligand: none) 15.9 nM.
Consider “AAGCUAUCUGUAGGAUAUACAACUGAUCUCGAGGUAGAAGGACAUCCAGUUACGCCAACAUGAGGAUCACCCAUGUGGAUCUUG [Eternabot solution 39] (Eterna round: R96, puzzle: Exclusion NG 1)”, for which the “apparent KD of MS2 coat protein” value by setting is: (input ligand: FMN 200 uM) 15.2 nM; under setting [1], 12.9 nM; (input ligand: none) 18.4 nM.
Take “AAGGCCUGAGGAUAUCAGAGUCUAAACAUGAGGAUCACCCAUGUGAACCUGGUCAGUCUGUGAGAAGGUAGUGCUC [Tequat] (puzzle: Exclusion 5)”: the “apparent KD of MS2 coat protein” value under setting [2] came out at 39.5 nM, the “apparent KD of MS2 coat protein” value under setting [3] worked out at 39.8 nM and the “apparent KD of MS2 coat protein” value under setting [4] was 57.3 nM.
As to “AAGUACCGUCACGAUAGUGAUGGUACAACAAGCAAGUGAACAUGAGGAUCACCCAUGUCCUCAAUUGCUCGUCUUAU [Sensor 3 - 71] (puzzle: Sensor v3, turn-off variant 2)”, the “apparent KD of MS2 coat protein” value worked out at 28.1 nM under setting [2], 62.1 nM under setting [3] and 28.5 nM under setting [4].

These data come from the supplement of paper PMC9170038.
